Experimental findings from the nanobody polyreactivity screen of Harvey et al. (2022) are described below.

The data set in a line: yeast display, Sf9 membrane polyspecificity reagent, FACS + sequencing; frameworks hold sequencing errors. An outline of the steps: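 Synthetic nanobody libraries on Saccharomyces cerevisiae BJ5465 were galactose-induced for 36–48 hours, stained 1 hour at 4 °C with 10% biotinylated, detergent-solubilized Sf9 membrane reagent and enriched on streptavidin microbeads. FACS then separated cells into low and high (top ~1%) gates by anti-HA (expression) and streptavidin (reagent binding) fluorescence. Genes were colony-PCR amplified, MiSeq 2 × 250 sequenced and CDR-length filtered. A clone's polyreactivity label is that of its gate of origin.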
In the case of “QVQLVESGGGLVQAGGSLRLSCAASGSTFVNNAMGWYRQAPGKERELVAAIRSSGGSTYYADSVKGRFTISRDNAKNTVSLQMNSLKPEDTAVYYCNADRWKYELDYWGQGTQVTVSS”, the “polyreactivity (PSR sort gate)” value is “high polyreactivity”.
As to “QVQLVESGGGLVQAGGSLRLSCAASGSTFVNNVMGWYRQAPGKERELVAAISGRGGNTYYADSVKGRFTISRDNAKNTVYLQMNSLKPEDTAVYYCAPYSWGWSLWTYDYWGQGTQVTVSS”, the “polyreactivity (PSR sort gate)” value was “high polyreactivity”.
For “QVQLVESGGGLVQAGGSLRLSCAASGSTFVNYAMGWYRQAPGKERELVAAITANGGRTYYADSVKGRFTISRDNAKNTVYLQMNSLKPEDTAVYYCNTESNLYRRRRNYWGQGTQVTVSS”, the “polyreactivity (PSR sort gate)” value is on record as “low polyreactivity”.
With “QVQLVESGGGLVQAGGSLRLSCAASGSTFVNYVMGWYRQAPGKERELVAAISRRGTSTRYADSVKGRFTISRDNAKNTVYFQMNSLKPEDTAVYFCAATRYVGVTGYGYWGLGTQVTVSS” the entry was “high polyreactivity”; with “QVQLVESGGGLVQAGGSLRLSCAASGSTFVPNDMGWYRQAPGKERELVAGISSVGGTDADSVKGRFTISRDNAKNTVYLQMNSLKPEDTAVYYCNALHAYYVLTPYDYWGQGTQVTVSS”, “low polyreactivity”; with “QVQLVESGGGLVQAGGSLRLSCAASGSTFVPYAMGWNRQAPGKERELVASISWRGGSTSYADSVKGRFTISRDNAKNTVYLQMNSLKPEDNAVYYCAARPRYRYKQDYYYWGQGSQVTVSS”, “high polyreactivity”.
Turning to “QVQLVESGGGLVQAGGSLRLSCAASGSTFVPYAMGWYRQAPGKERELVAAISSAGSTNYADSVKGRFTISRDNAKNTVYLQMNSLKPEDTAVYYCARDIQDTYVFDYWGQGTQVTVSS”, the “polyreactivity (PSR sort gate)” value is “low polyreactivity”.
As for “QVQLVESGGGLVQAGGSLRLSCAASGSTFVPYAMGWYRQAPGKERELVAAITWSGGDSTYYADSVKGRFTISRDNAKNTVYLQMNSLKPEDTAVYYCAASYLGRKYDYWGQGTQVTVSS”, the “polyreactivity (PSR sort gate)” value is “high polyreactivity”.
Turning to “QVQLVESGGGLVQAGGSLRLSCAASGSTFVPYAMGWYRQAPGKERELVATIRWRGDRTYYADSVKGRFTSSRDNAKKTVYLQMNSLKPEDTAVYYCNTAGWSFYSGRYDYWGQGTQVTVSS”, the “polyreactivity (PSR sort gate)” value is “high polyreactivity”.
Regarding “QVQLVESGGGLVQAGGSLRLSCAASGSTFVPYTMGWYRQAPGKERELVAVISSSGGNTYYADSVKGRFTISRDNAKNTVYLQMNSLKPEDTAVYYCNKDYWYPNYRRYEYWGQGTQVTVSS”, the “polyreactivity (PSR sort gate)” value is listed as “low polyreactivity”.
Regarding “QVQLVESGGGLVQAGGSLRLSCAASGSTFVQNAMGWYRQAPGNERELVAAISRTGGSTYYADSVKGRFTISRDNAKNTVYLQMNSLKPEDTAVYYCAKRPPNYSWPKIIEFGSWGLGTQVTVSS”, the “polyreactivity (PSR sort gate)” value was “high polyreactivity”.
For “QVQLVESGGGLVQAGGSLRLSCAASGSTFVRNAMGWYRQAPGKERELVAAITSSGGSTYYADSVKGRFTISRDNAKYSVYLQMNSLKPEDTAVYYCAKRRYYRYDYWGQGTQVTVSS”, the “polyreactivity (PSR sort gate)” value is reported as “low polyreactivity”.
In the case of “QVQLVESGGGLVQAGGSLRLSCAASGSTFVRYAKGWYRQAPGKETELVAAISYRGGSTYYADSVKGRFTISRDNAKNTVYLQMNSLKPEDTAVYYCAAESRHVEGEYWGQGTQVTVSS” it was “high polyreactivity”; in that of “QVQLVESGGGLVQAGGSLRLSCAASGSTFVRYAMGWDRQAPGTEGSWVAAISVDGDSTYYADSVKGRFTISRDNAKNTVYFQLNSLKPEDTAVYYCNVPLWDYYPRFPLHDYWGQGTQVTVSA”, “low polyreactivity”; in that of “QVQLVESGGGLVQAGGSLRLSCAASGSTFVRYDMGWYRQAPGKERELVADISWSGVSTYADSVKGRFTISRDNAKNTVYLQMNSLIAEDTAVYYCAKDSDLYQRGGYYWGQGTQVTVSS”, “low polyreactivity”.
“QVQLVESGGGLVQAGGSLRLSCAASGSTFVRYTMGWYRQAPGKERELVAGITGGGSTNYADSVKGRFTISRDNAKNTVYLQMNSLKPEDTAVYYCAADLWWERAYPEYDYWGQGTQVTVSS”: the “polyreactivity (PSR sort gate)” value is given as “low polyreactivity”.
In the case of “QVQLVESGGGLVQAGGSLRLSCAASGSTFVSNTMGWYRQAPGKERELVAAITWGGGGTYYADSVKGRFTISRDNAKNTVYLQMNSLKPEDTAVYYCAAKVQGGYYDYDYWGQGTQVTVSS” it was “low polyreactivity”; in that of “QVQLVESGGGLVQAGGSLRLSCAASGSTFVSYDMGWYRQAPGKERELVATIRRGGSTYYADSVKGRFTISRDNAKNTVYLQMNSLKPEDTAVYYCAAQQYAKYGWYAYDYWGQGTQVTVSS”, “low polyreactivity”.
On to “QVQLVESGGGLVQAGGSLRLSCAASGSTFVTNDMGWSRQAPGKERELVAAISSGTSTNYAYSVKGRFTISRDNAKNTVYLQMNSQKPEDTAVYYCAADSLKRYDYWGQGTQVTVSS”, for which the “polyreactivity (PSR sort gate)” value was “low polyreactivity”.
In the case of “QVQLVESGGGLVQAGGSLRLSCAASGSTFVTYAMGWYRQAPGKERELVAAISSGGGNTYYADSVKGRFTISRDNAKNTVYLQMNSLKPEDSAVYYCAAVNPRSEYDYWGQGTQVTVSS” it was “high polyreactivity”; in that of “QVQLVESGGGLVQAGGSLRLSCAASGSTFVTYAMGWYRQAPGKERELVAAISYSGGSTYADSVKGRFTISRDNAKNTVYLQMNSLKPEDTAVYYCNSDTSVDVRFDYWGQGTQVTVSS”, “low polyreactivity”; in that of “QVQLVESGGGLVQAGGSLRLSCAASGSTFVVNAMGWYRQAPGKERELVAAITQDGDGTYYADSVKGRFTISRDNAKNTVYLQMNSLKPEDTAVYYCAAYPFYGPYDEFDYWGQGTQVTVSS”, “low polyreactivity”.
With “QVQLVESGGGLVQAGGSLRLSCAASGSTFVVYAMGWYRQAPGKERELLAAIRANVGGTYYADSVKGRFTISRDNAKNTVYLQMNSLKPEDTAVYYCAAGGYYYNPSFTYGILDYEYCGQGTQVTVSS” the entry was “low polyreactivity”; with “QVQLVESGGGLVQAGGSLRLSCAASGSTFVWYVMGWYRQAPGKEREFVAAISTSGGRTYYADSVKGRFTISRDNAKNTGYLQMNSLKPEDTAVYYCATRPYFTYRWYDYWGQGTQVTVSS”, “high polyreactivity”; with “QVQLVESGGGLVQAGGSLRLSCAASGSTFVYNAMGWDRQAPGKERELVAAITVSDGSTYYADSVKGRFTISRDNAKNTVYLHMKSLKPEDTAVFYCNADFPRKTRYEYWGQGTQVTVSS”, “low polyreactivity”.
For the sequence “QVQLVESGGGLVQAGGSLRLSCAASGSTFVYNAMGWYRQAPGKERELVAAISWSDGSTYYADSVKGRFTISRDNAKNTVYLELNSLKPEDTAVYYCADEGYYSWDVHDYNYWGQGTQVTVSS”, the “polyreactivity (PSR sort gate)” value is “high polyreactivity”.
In the case of “QVQLVESGGGLVQAGGSLRLSCAASGSTFVYYAKGWYRQAPGKEREFVAAISISTGSTYYADSVKGRFTISRDNAKNTVYLQMNSLKPEDTAVYYCAVDWFLGGYDDLDYWGQGTQVTVSS” it was “low polyreactivity”.
As to “QVQLVESGGGLVQAGGSLRLSCAASGSTFVYYAMGWYRQAPGKERELVARISSTGSTNYADSVKGRFTISRDNAKNTVYLQMHSLKPEDTAVYYCAARGPSPGHGTYTRTRGQSYYYWGQCTQVTVSS”, the “polyreactivity (PSR sort gate)” value is given as “high polyreactivity”.
In the case of “QVQLVESGGGLVQAGGSLRLSCAASGSTFVYYTMGLYRQAPGKERELVAAISWRGDDTYYSDSVKGRFTISRDNAKNTVYLQMNSLKPEDTAVYYCAGEPVSTYYWTFGDYWGQGYQVTVSS” it was “low polyreactivity”; in that of “QVQLVESGGGLVQAGGSLRLSCAASGSTFVYYVMGWYRQAPGKQRELVAAISTSGGSTYYADSVKGRFTISRDNAKKTVYLQMNSLKPEDTAVYYCAARVYYKYDYWGQGTQVTVSS”, “low polyreactivity”; in that of “QVQLVESGGGLVQAGGSLRLSCAASGSTFWANAMGWYRPAPGKERELLAGITWNAGSTYYADSVKGRYTISRDNAKNNVYLQLNSLKPEDTAVYYCAAYYHFQGWGPGYNSCGQGTQVTVSS”, “low polyreactivity”.
Consider “QVQLVESGGGLVQAGGSLRLSCAASGSTFWANAMGWYRPAPGKERELVAAISRNGGSTYYADSVKGRFTISRDNAKNTVYLQMNSLKPEDTAVYYCAAKKYYYRRQLDYWGQGTQVTVSS”, for which the “polyreactivity (PSR sort gate)” value is “high polyreactivity”.
With “QVQLVESGGGLVQAGGSLRLSCAASGSTFWDNAMGWYRQAPGKERELVAAITAIGGTTYYADSVKGRFTISRDNAKNTVYLQMNSLKPEDTAVYYCAADWTTYGFSYFSIYYYWGQGTQVTVSS” the entry was “low polyreactivity”; with “QVQLVESGGGLVQAGGSLRLSCAASGSTFWDYAMGWYRQAHGKERELVAAITDSGGSTYYADSVKGRFTISRDNAKNTVYLQMNSLKPEDTAVYYCAAEAYIWWAWEYEYWGQGPQVTVSS”, “high polyreactivity”.
For the sequence “QVQLVESGGGLVQAGGSLRLSCAASGSTFWDYAMGWYRQAPGKERELVASISSGGRTYYADSVKGRFTISRDNAKNTVYLQMNSLKPEDTAVYYCARRSWWDYYSWGQGTQVTVSS”, the “polyreactivity (PSR sort gate)” value was “high polyreactivity”.
With “QVQLVESGGGLVQAGGSLRLSCAASGSTFWENSMGWYRQAPGKERELVAAISWGGGSTYYADSVKGRFTISRDNAKNTVYLQMNSLKPEDTAGYYCAADQTSPQFLTSYGGYNYWGQGTQVTVSS”, the “polyreactivity (PSR sort gate)” value was “low polyreactivity”.
As for “QVQLVESGGGLVQAGGSLRLSCAASGSTFWEYVMGWYRQAPGKERELVAAITTNDDSTYYADSVKGRFTISRDNAKNTVYLQMNSLKPEDTAVYYFNADQITGQFDYWGQGTQVTVSS”, the “polyreactivity (PSR sort gate)” value is reported as “low polyreactivity”.
With “QVQLVESGGGLVQAGGSLRLSCAASGSTFWFYAMGWYRQAPGKERELVAVISNSGSTYYADSVKGRFTISRDNAKNTVYLQMNSLKPEDTAVYYCAAYAYQYRFSGYGYWGQGTQVTVSS” the entry was “low polyreactivity”; with “QVQLVESGGGLVQAGGSLRLSCAASGSTFWFYPMGRYRQAPGKERELVAVISNSGSTYYADSVKGRFTISRDNAKNTVYLQMNSLKPEDTAVYYCNKDGGGDSYWYDYWGQGTQVTVSS”, “low polyreactivity”; with “QVQLVESGGGLVQAGGSLRLSCAASGSTFWGYAMGWYRQAPGKERELVAAITSGGRTDYADSVKGRFTISRHNAKNTVYLQMNSRKPEDTAVYYCNAYLYYYRYHYNYWGQGTQVTVSS”, “low polyreactivity”.
In the case of “QVQLVESGGGLVQAGGSLRLSCAASGSTFWGYAMGWYRQAPGKERELVATINQSAGSTYYADSVKGRFTISRDNAKNTVYLQMNSLKPEDTAVYYCAAEARVQFSYDYWGQGTQVTVSS” it was “low polyreactivity”.
